Measurements published in PMC3193538.
[ ]: non-standard residue; d: D form.

Biological target: human integrin protein αvβ3 (human) (UniProt P06756)
Experiment: SPR

| koff | Binder |
| --- | --- |
| 0.00132 s⁻¹ | cyclo(RGD[dF]C) (also: conjugated to G5 PAMAM dendrimer, 2 peptides per dendrimer) [G5-2RGD (generation 5 PAMAM dendrimer displaying 2 cyclic RGD peptides)] |
| 0.00136 s⁻¹ | cyclo(RGD[dF]C) (also: conjugated to G5 PAMAM dendrimer, 3 peptides per dendrimer) [G5-3RGD (generation 5 PAMAM dendrimer displaying 3 cyclic RGD peptides)] |
| 0.00254 s⁻¹ | cyclo(RGD[dF]C) (also: conjugated to G5 PAMAM dendrimer, 10 peptides per dendrimer) [G5-10RGD (generation 5 PAMAM dendrimer displaying 10 cyclic RGD peptides)] |
| 0.00155 s⁻¹ | cyclo(RGD[dF]C) (also: conjugated to G5 PAMAM dendrimer, 7 peptides per dendrimer) [G5-7RGD (generation 5 PAMAM dendrimer displaying 7 cyclic RGD peptides)] |
